In paper PMC3975505:

Molecular target: lnkH2B-H2A.Z (linked H2B-H2A.Z, single polypeptide chain) (human) (UniProt Q16778)
Test: AUC

EEEEEEEEEDEDEDEDEDEAGSELGEGEEEVGLSYLMKEEIQDEEDD (domain or fragment) [Anp32e_(186-232)] showed a stoichiometry N of 1.
